{
  "source": "paper PMC7791793",
  "key": {"[1]": {"molecular_target": "human ether-à-go-go-related gene potassium channel 1 (hERG), stable HEK 293 cell line (human) (UniProt Q12809)"}, "[2]": {"molecular_target": "human ether-à-go-go-related gene potassium channel 1 (hERG), wild type, in Xenopus laevis oocytes (human) (UniProt Q12809)", "experiment": "two-electrode voltage clamp (fraction of uninhibited tail currents)"}, "[3]": {"molecular_target": "human ether-à-go-go-related gene potassium channel 1 (hERG), wild type, in Xenopus laevis oocytes (human) (UniProt Q12809)"}},
  "data": [
    {"substance": "recombinant APETx1 (wild type) (peptide)", "values": [
      {"measurement": "toxin-induced shift of the half-maximal activation voltage (ΔV1/2) of hERG, whole-cell patch clamp, APETx1 0.1-10 μM; value at 10 μM", "setting": "[1]", "value": 23.9, "unit": "mV"},
      {"measurement": "apparent Kd, model (A): four equivalent and independent binding sites per channel, fractional toxin-sensitive current", "setting": "[2]", "value": 1.2, "unit": "µM"},
      {"measurement": "apparent Kd, model (B): four equivalent and independent binding sites per channel, fully toxin-sensitive current", "setting": "[2]", "value": 1.7, "unit": "µM"},
      {"measurement": "apparent Kd, model (C): one binding site per channel, fractional toxin-sensitive current", "setting": "[2]", "value": 0.23, "unit": "µM"},
      {"measurement": "toxin-induced shift of the half-maximal activation voltage (ΔV1/2) of hERG, TEVC recordings in oocytes, APETx1 0.1-10 μM; value at 10 μM", "setting": "[3]", "value": 21.9, "unit": "mV"}
    ]}
  ]
}
